From patent publication US9018171B2, “Uses of an immunomodulatory protein (GMI) from Ganoderma microsporum” (Mycomagic Biotechnology Co., Ltd., priority 2010, dated 2015)
Entries after “also recorded” stand apart in the source; their conditions may differ.

Columns and labels:
Cdc42 = assay: Rac1 and Cdc42 activity assay (pull-down); assay type: cell-based, human; settings: A549 cells, GMI 4, 16 μg/ml 24 h, 10 ng/mL EGF 3 min
Description: (§1) A549 cells were seeded onto 100 mm plates and cultured to around 80% confluence. The cells were then treated with various doses of GMI (4, 16 μg/ml). […] A549 cells were pretreated with various concentrations of GMI for 24 h before being stimulated with 10 ng/mL EGF for 3 min. After that, cells were washed with cold PBS and lysated on the dish in RIPA buffer. Active GTP-bound Rac1 or Cdc42 was pulled down using the GST-PBD fusion protein of PAK1 immobilized on glutathione beads and active Rac1 and Cdc42 were detected with anti-Rac1 and anti-Cdc42 antibodies.
(§2) Active Rac1 and Cdc42 were determined by pull-down assay (Binker et al., 2009, Biochem Biophys Res Commun, 379, 445-450). Serum-starved A549 cells were or were not stimulated for 3 min with EGF and then collected in 800 μl of ice-cold lysis-buffer. Lysates were centrifuged to remove cellular debris. From each supernatant, 5 μl were taken out to measure protein content using Protein Assay Kit (Bio-Rad, Hercules, Calif.). Twenty μl were removed to determine total Rac1 in total lysate, and the remaining volume was used for the pull-down assay. Lysates containing equal amounts of proteins were then mixed with 15 μg of GST-PAK-PBD-beads (Pierce). Samples for total Rac1 and Cdc42 in total lysate and the pelleted beads were diluted in Laemmli sample-buffer and boiled. The proteins were separated using SDS-PAGE (12% gel). […]

Rac1 = Rac1 and Cdc42 activity assay (pull-down); assay type: cell-based, human; settings: A549 cells, GMI 4, 16 μg/ml 24 h, 10 ng/mL EGF 3 min
Description: as §1, §2

HCT-15 = assay: NCI60 in vitro screening, Colon Cancer; assay type: cell-based
HT29 = assay: NCI60 in vitro screening, Colon Cancer; assay type: cell-based
SF-295 = assay: NCI60 in vitro screening, CNS Cancer; assay type: cell-based
SNB-75 = assay: NCI60 in vitro screening, CNS Cancer; assay type: cell-based

B1: GMI: immunomodulatory protein from Ganoderma microsporum, amino acid sequence SEQ ID NO: 3, manufactured by Mycomagic Biotechnology Co., Ltd. (protein, listed as Ganoderma microsporum)
chain: MSDTALIFTLAWNVKQLAFDYTPNWGRGRPSSFIDTVTFPTVLTDKAYTYRVVVSGKDLGVRPSYAVESDGSQKINFLEYNSGYGIADTNTIQVYVIDPDTGNNFIVAQWN
- EGF-promoted Cdc42 activity (Cdc42): inhibits Cdc42 activation; also recorded: reduced EGF-promoted Cdc42 activity in a dose-dependent manner
- EGF-promoted Rac1 activity (Rac1): little effect on Rac1; also recorded: little reduction in Rac1 activity
- TGI (HCT-15; HCT-15): 5.26E1
- Percent Growth (HCT-15; HCT-15, Log10 Concentration 0.1): 94%
- Percent Growth (HCT-15; HCT-15, Log10 Concentration 1.1): 52%
- Percent Growth (HCT-15; HCT-15, Log10 Concentration 2.1): −31%
- Percent Growth (HCT-15; HCT-15, Log10 Concentration −0.9): 97%
- Percent Growth (HCT-15; HCT-15, Log10 Concentration −1.9): 97%
- Growth Percent (HCT-15; HCT-15, one dose): 33.64%
- GI50 (HCT-15; HCT-15, in µg/mL): 1.31E1
- TGI (HT29; HT29): >1.25E2
- Percent Growth (HT29; HT29, Log10 Concentration 0.1): 98%
- Percent Growth (HT29; HT29, Log10 Concentration 1.1): 57%
- Percent Growth (HT29; HT29, Log10 Concentration 2.1): 22%
- Percent Growth (HT29; HT29, Log10 Concentration −0.9): 99%
- Percent Growth (HT29; HT29, Log10 Concentration −1.9): 100%
- Growth Percent (HT29; HT29, one dose): 28.36%
- GI50 (HT29; HT29, in µg/mL): 1.95E1
- TGI (SF-295; SF-295): >1.25E2
- Percent Growth (SF-295; SF-295, Log10 Concentration 0.1): 101%
- Percent Growth (SF-295; SF-295, Log10 Concentration 1.1): 93%
- Percent Growth (SF-295; SF-295, Log10 Concentration 2.1): 22%
- Percent Growth (SF-295; SF-295, Log10 Concentration −0.9): 100%
- Percent Growth (SF-295; SF-295, Log10 Concentration −1.9): 103%
- Growth Percent (SF-295; SF-295, one dose): 70.58%
- GI50 (SF-295; SF-295, in µg/mL): 5.07E1
- TGI (SNB-75; SNB-75): 1.45E1
- Percent Growth (SNB-75; SNB-75, Log10 Concentration 0.1): 97%
- Percent Growth (SNB-75; SNB-75, Log10 Concentration 1.1): 5%
- Percent Growth (SNB-75; SNB-75, Log10 Concentration 2.1): −68%
- Percent Growth (SNB-75; SNB-75, Log10 Concentration −0.9): 101%
- Percent Growth (SNB-75; SNB-75, Log10 Concentration −1.9): 95%
- Growth Percent (SNB-75; SNB-75, one dose): −45.73%
- GI50 (SNB-75; SNB-75, in µg/mL): 4.04E0
- LC50 (SNB-75; SNB-75, in µg/mL): 7.14E1
